Test results: paper PMC9554752, “Complement membrane attack complex is an immunometabolic regulator of NLRP3 activation and IL-18 secretion in human macrophages” (Frontiers in Immunology, 2022)

Biological target: the molecule itself
Assay: Western blot of dimer and monomer bands after SDS-PAGE; hMDMs incubated with MAC (+/- anti-C7) or 5 uM MitoPQ for 3 hours; cells treated with 80 mM MMTS for 10 min at RT before lysis; % dimer = SI dimer/(SI dimer + SI monomer) x 100, expressed relative to untreated control

B1: mitochondrial peroxiredoxin 3 (natural protein, human (endogenous in hMDMs), UniProt P30048 62-256, looked up)
chain: APAVTQHAPYFKGTAVVNGEFKDLSLDDFKGKYLVLFFYPLDFTFVCPTEIVAFSDKANEFHDVNCEVVAVSVDSHFSHLAWINTPRKNGGLGHMNIALLSDLTKQISRDYGVLLEGSGLALRGLFIIDPNGVIKHLSVNDLPVGRSVEETLRLVKAFQYVETHGEVCPANWTPDSPTIKPSPAASKEYFQKVNQ
notes: peroxiredoxin 3 (Prx3), mitochondrial, endogenous in human monocyte-derived macrophages; detected with rabbit anti-Prx3 (Abcam Ab73349); Cells were incubated in 80 mM methylmethanethiosulfonate (MMTS) for 10 min before lysis; also called Prx3; Prx; source: endogenous, hMDM (human monocyte-derived macrophage) lysate
stoichiometry N: 2
